Changes are numbered by the printed parent chain. Blank lines part the entries; values can stand above or below the binder they belong to.
Legend:
[1] = target: T1, GST protein (protein of GST moiety alone, from pGEX-3X) (UniProt P08515 1-218 = GST); experiment: GST pull down of 35S-labelled in vitro translated human AKBP2, SDS-PAGE and autoradiography
T1 construct: Control of the pull down
Experimental: Using the GST fusion Akt2 protein (to be referred to as GST-Akt2 hereinafter) prepared in the aforementioned (2), the presence or absence of direct interaction between human AKBP2 protein and Akt2 protein was verified by the GST-pull down method (H. Matsushime et al., Jikken Kogaku, Vol. 113, No. 6, p. 528, 1994). Firstly, using 0.5 μg of the pcDNA-human AKBP2 prepared in the aforementioned Example 5 as the template, and using 40 μl of a TNT kit (TNTR Quick Coupled Transcription/Translation System; Promega) and 1.3 MBq of a radioisotope (redivue Pro-mix L-[³⁵S]; Amersham), radioisotope-labeled human AKBP2 protein was prepared by in vitro transcription and translation in accordance with the attached protocols. A 15 μl portion of this human AKBP2 protein preparation solution was mixed with 1 μg of the GST protein or GST-Akt2 purified on glutathione beads in the aforementioned (2) and shaken at 4° C. for 1 hour after adding 0.3 ml of Buffer A (50 mM Tris-HCl (pH 7.5), 10% glycerol, 120 mM NaCl, 1 mM EDTA, 0.1 mM EGTA, 0.5 mM PMSF, 0.5% NP-40). […] After repeating this operation 4 times, proteins in the precipitate were separated by SDS polyacrylamide gel electrophoresis in accordance with a conventionally known method, and the human AKBP2 protein was detected by autoradiography. As a result, a band which is not detected when the GST protein is mixed was detected when GST-Akt2 was mixed.

[2] = target: T2, mouse AKBP2 over-expressed in NIH3T3 L1 fat cells from adenovirus vector AKBP2/pAdTrack-CMV
T2 chain: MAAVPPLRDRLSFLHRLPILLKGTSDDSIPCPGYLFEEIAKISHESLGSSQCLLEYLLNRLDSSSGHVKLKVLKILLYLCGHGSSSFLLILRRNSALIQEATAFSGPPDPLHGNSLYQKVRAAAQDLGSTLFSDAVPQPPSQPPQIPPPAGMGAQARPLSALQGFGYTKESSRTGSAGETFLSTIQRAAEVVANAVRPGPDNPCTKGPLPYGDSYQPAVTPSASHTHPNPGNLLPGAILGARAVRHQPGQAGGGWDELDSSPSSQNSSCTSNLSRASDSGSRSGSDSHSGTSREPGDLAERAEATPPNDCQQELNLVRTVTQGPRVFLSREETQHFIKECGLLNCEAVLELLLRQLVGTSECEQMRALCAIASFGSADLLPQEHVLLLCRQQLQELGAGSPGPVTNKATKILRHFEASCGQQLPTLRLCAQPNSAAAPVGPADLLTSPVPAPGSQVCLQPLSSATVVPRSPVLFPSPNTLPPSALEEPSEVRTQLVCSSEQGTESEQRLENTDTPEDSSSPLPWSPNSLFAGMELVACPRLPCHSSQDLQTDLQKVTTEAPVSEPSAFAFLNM

[3] = target: T3, mouse AKBP2 (Akt2 Binding Protein 2) fused to the GAL4 transcriptional activation domain (pACT2 library clone … (mouse, UniProt Q3U3N6 1-573)); experiment: yeast two hybrid, HIS3 (3AT resistance) and lacZ (β-galactosidase) reporters
T3 construct: Prey of the yeast two hybrid screen; also called mouse AKBP2 protein; not shown: limits and junction r
T3 sequence: T2 chain
Experimental: The aforementioned yeast strain MaV203 for two hybrid transformed by pDB-Akt2 was suspended in 400 ml of YPD liquid medium (DIFCO), cultured at 30° C. for about 6 hours until absorbance at a wave length of 590 nanometer became from 0.1 to 0.4, and then made into competent cells by the lithium acetate method, and the final amount was suspended in 1.0 ml of 0.1 M lithium-tris buffer. The cells were transformed with 20 μg of the mouse fat tissue derived cDNA library prepared in the aforementioned (3), and the cells were selected by culturing on a solid synthetic minimal medium (DISCO, 20% agarose) from which tryptophan and leucine as respective selection markers of pDB-Akt2 and the library had been deleted, thereby obtaining a transformant into which both plasmids were introduced. At the same time, in order to select a cell having an activated reporter gene HIS3 which is expressed when a fusion protein of the GAL4 DNA binding domain artificially expressed in the two hybrid system is linked to a fusion protein of the GAL4 transcriptional activation domain, the transformed cells were cultured at 30° C. for 5 days on the solid minimal medium (20% agarose) from which histidine was removed together with tryptophan and leucine and to which 20 mM of 3AT (3-amino-1,2,4-triazole; Sigma) as an inhibitor of the enzyme encoded by HIS3 was added. […]

T1 sequence (P08515 whole entry): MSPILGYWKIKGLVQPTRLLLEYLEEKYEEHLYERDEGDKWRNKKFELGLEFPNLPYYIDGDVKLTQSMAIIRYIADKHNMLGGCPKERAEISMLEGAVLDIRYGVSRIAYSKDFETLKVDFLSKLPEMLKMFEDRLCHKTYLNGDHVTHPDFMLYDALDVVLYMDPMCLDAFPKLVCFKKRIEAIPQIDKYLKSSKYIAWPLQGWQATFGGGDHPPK

B1: human AKBP2-V5-His 6 fusion protein (in vitro transcribed and translated from pcDNA-human AKBP2, 35S-labelled) (other, not shown: small tags and cut ends)
chain: MAAAPPLRDRLSFLHRLPILLKGTSDDDVPCPGYLFEEIAKISHESPGSSQCLLEYLLSRLHSSSGHGKLKVLKILLYLCSHGSSFFLLILKRNSAFIQEAAAFAGPPDPLHGNSLYQKVRAAAQDLGSTLFSDTVLPLAPSQPLGTPPATGMGSQARPHSTLQGFGYSKEHGRTGSAGEAFLSTIQKAAEVVASAMRPGPESPSTRRLLPRGDTYQPAMMPSASHGPPTLGNLLPGAIPGPRAVRHQPGQAGGGWDELDSGPSSQNSSQNSDLSRVSDSGSHSGSDSHSGASREPGDLAERVEVVALSDCQQELSLVRTVTRGPRAFLSREEAQHFIKACGLLNCEAVLQLLTCHLRGTSECTQLRALCAIASLGSSDLLPQEHILLRTRPWLQELSMGSPGPVTNKATKILRHFEASCGQLSPARGTSAEPGPTAALPGPSDLLTDAVPLPGSQVFLQPLSSTPVSSRSPAPSSGMPSSPVPTPPPDASPIPAPGDPSEAEARLAESRRWRPERIPGGTDSPKRGPSSCAWSRDSLFAGMELVACPRLVGAGAAAGESCPDAPRAPQTSSQRTAAKEPPGSEPSAFAFLNA
modifications: radioisotope-labelled (redivue Pro-mix L-[35S])
notes: also called human AKBP2 protein
binding result [1]: no binding (tested: 1 µg of the GST protein)

B2: Akt2 of NIH3T3 L1 fat cells (endogenous, immunoprecipitated with anti-Akt2 antibody) (protein)
chain: MNEVSVIKEGWLHKRGEYIKTWRPRYFLLKSDGSFIGYKERPEAPDQTLPPLNNFSVAECQLMKTERPRPNTFVIRCLQWTTVIERTFHVDSPDEREEWMRAIQMVANSLKQRGPGEDAMDYKCGSPSDSSTSEMMEVAVNKARAKVTMNDFDYLKLLGKGTFGKVILVREKATGRYYAMKILRKEVIIAKDEVAHTVTESRVLQNTRHPFLTALKYAFQTHDRLCFVMEYANGGELFFHLSRERVFTEDRARFYGAEIVSALEYLHSRDVVYRDIKLENLMLDKDGHIKITDFGLCKEGISDGATMKTFCGTPEYLAPEVLEDNDYGRAVDWWGLGVVMYEMMCGRLPFYNQDHERLFELILMEEIRFPRTLGPEAKSLLAGLLKKDPKQRLGGGPSDAKEVMEHRFFLSINWQDVVQKKLLPPFKPQVTSEVDTRYFDDEFTAQSITITPPDRYDSLDPLELDQRTHFPQFSYSASIRE
phosphorylation of the 473rd serine of immunoprecipitated Akt2, western blotting with anti-phosphorylated serine473 antibody, 30 minutes of insulin stimulation [2]: degree of the phosphorylation acceleration was weakened in the cells infected with the AKBP2 virus than in the control virus-infected cells | phosphorylation of the 473rd serine of immunoprecipitated Akt2, western blotting with anti-phosphorylated serine473 antibody, no stimulation [2]: the phosphorylated state at the time of no stimulation was reduced in the cells infected with the AKBP2 virus in comparison with the control virus-infected cells

binding result [3]: binds
B3: human Akt2 fused to the GAL4 DNA binding region (expressed from pDB-Akt2 in yeast MaV203) (other, UniProt P31751 1-481, looked up)
chain: B2 chain with G114A, A119P, S133T, M135E, N141S, D250E, G374S, D460G, P461L
notes: mature; Bait of the yeast two hybrid screen; also called Akt2 (PKBβ); not shown: limits and junction residues not pri
